# Laboratory results reported in PMC6307784.
# Target: T1, NhaR-His6 (Escherichia coli) (UniProt P0A9G2)
# T1 sequence: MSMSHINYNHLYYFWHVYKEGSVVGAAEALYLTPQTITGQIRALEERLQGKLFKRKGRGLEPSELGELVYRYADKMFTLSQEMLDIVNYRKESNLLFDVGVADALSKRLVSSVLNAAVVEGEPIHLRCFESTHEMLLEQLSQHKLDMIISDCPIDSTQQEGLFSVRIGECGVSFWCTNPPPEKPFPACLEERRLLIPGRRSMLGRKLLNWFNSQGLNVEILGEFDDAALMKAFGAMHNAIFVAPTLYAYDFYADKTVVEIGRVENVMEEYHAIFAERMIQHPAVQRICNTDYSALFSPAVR
# Experiment: EMSA
# Details: LightShift Chemiluminescent EMSA Kit (Pierce) as per manufacturer, DNA 1 fM as printed, 5% PAGE; buffer, salt, pH and temperature not stated
sequence,measurement,value
TCGACGAAGATAGAATCGTCTTTTTCGCGAAGTCTTACAAGGCGCTTACAGACAATGCCTTAAGGAAAATTTCATATGAAAGTTAAGAATTAACAATCAACATTTTGATTTTAAATGAAAATAACGATTCTTATCTTTTTAAGTATTCGCTTATTTCCTGGCGATCTCCTACAGAGTCTGTAAGAGATCTCTCACAACCAGATGGGGTATTTGGATTA (double strand) [csrB promoter 220 bp],binding,no binding
